{"source": "the supplement of paper PMC9112550", "about": "“Optimization of the antimicrobial peptide Bac7 by deep mutational scanning” (BMC Biology, 2022);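 also: peptides expressed intracellularly from a pBAD plasmid library in pooled LB shake-flask culture, induced with 0.3% L-arabinose, DNA abundance read by NGS, three biological replicates, DESeq2 with apeglm shrinkage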"}
{"tested_on": "Escherichia coli TOP10", "experiment": "shrunken log2 fold change of peptide-encoding DNA abundance (4.5 h post-induction vs induction); higher = less antimicrobial activity (less host growth inhibition)", "conditions": "time post-induction: 4.5 h; library: site-saturation at positions 5, 18, 19, 20"}
{"sequence": "RRIRWRPPRLPRPRPRPHMLPRP", "shrunken log2 fold change": -0.954}
{"sequence": "RRIRIRPPRLPRPRPRPYWDPRP", "shrunken log2 fold change": -0.143}
{"sequence": "RRIRLRPPRLPRPRPRPSEEPRP", "shrunken log2 fold change": -0.0637}
{"sequence": "RRIRPRPPRLPRPRPRPRYEPRP", "shrunken log2 fold change": -0.0954}
{"sequence": "RRIRRRPPRLPRPRPRPQMSPRP", "shrunken log2 fold change": 0.0441}
{"sequence": "RRIRYRPPRLPRPRPRPPMAPRP", "shrunken log2 fold change": 0.298}
{"sequence": "RRIRGRPPRLPRPRPRPLGYPRP", "shrunken log2 fold change": 0.885}
{"sequence": "RRIRTRPPRLPRPRPRPWMTPRP", "shrunken log2 fold change": -0.0339}
{"sequence": "RRIRCRPPRLPRPRPRPHVKPRP", "shrunken log2 fold change": -0.284}
{"sequence": "RRIRPRPPRLPRPRPRPMGGPRP", "shrunken log2 fold change": 0.113}
{"sequence": "RRIRARPPRLPRPRPRPPIQPRP", "shrunken log2 fold change": 0.431}
{"sequence": "RRIRWRPPRLPRPRPRPAQMPRP", "shrunken log2 fold change": 0.173}
{"sequence": "RRIRQRPPRLPRPRPRPVPLPRP", "shrunken log2 fold change": 0.0148}
{"sequence": "RRIRVRPPRLPRPRPRPMQQPRP", "shrunken log2 fold change": 0.108}
{"sequence": "RRIRYRPPRLPRPRPRPQMNPRP", "shrunken log2 fold change": -1.27}
{"sequence": "RRIRTRPPRLPRPRPRPYMVPRP", "shrunken log2 fold change": -1.93}
{"sequence": "RRIRCRPPRLPRPRPRPPIWPRP", "shrunken log2 fold change": 0.134}
{"sequence": "RRIRMRPPRLPRPRPRPAALPRP", "shrunken log2 fold change": 0.292}
{"sequence": "RRIRYRPPRLPRPRPRPWCGPRP", "shrunken log2 fold change": -0.974}
{"sequence": "RRIRPRPPRLPRPRPRPNTCPRP", "shrunken log2 fold change": -0.00653}
{"sequence": "RRIRKRPPRLPRPRPRPGFSPRP", "shrunken log2 fold change": 0.297}
{"sequence": "RRIRFRPPRLPRPRPRPQEDPRP", "shrunken log2 fold change": 0.0325}
{"sequence": "RRIRPRPPRLPRPRPRPFHAPRP", "shrunken log2 fold change": -0.0472}
{"sequence": "RRIRNRPPRLPRPRPRPTAQPRP", "shrunken log2 fold change": 0.136}
{"sequence": "RRIRFRPPRLPRPRPRPKDSPRP", "shrunken log2 fold change": -0.335}
{"sequence": "RRIRERPPRLPRPRPRPDQRPRP", "shrunken log2 fold change": -0.48}
{"sequence": "RRIRYRPPRLPRPRPRPPEEPRP", "shrunken log2 fold change": 0.0153}
{"sequence": "RRIRGRPPRLPRPRPRPVNNPRP", "shrunken log2 fold change": -0.0355}
{"sequence": "RRIRRRPPRLPRPRPRPPRSPRP", "shrunken log2 fold change": 0.904}
{"sequence": "RRIRHRPPRLPRPRPRPPICPRP", "shrunken log2 fold change": -0.0463}
{"sequence": "RRIRSRPPRLPRPRPRPPTIPRP", "shrunken log2 fold change": 0.0521}
{"sequence": "RRIRVRPPRLPRPRPRPHIVPRP", "shrunken log2 fold change": -0.165}
{"sequence": "RRIRLRPPRLPRPRPRPDSIPRP", "shrunken log2 fold change": -0.0883}
{"sequence": "RRIRNRPPRLPRPRPRPVAKPRP", "shrunken log2 fold change": -0.107}
{"sequence": "RRIRVRPPRLPRPRPRPTNDPRP", "shrunken log2 fold change": 0.0333}
{"sequence": "RRIRWRPPRLPRPRPRPIQYPRP", "shrunken log2 fold change": -0.101}
{"sequence": "RRIRNRPPRLPRPRPRPLCMPRP", "shrunken log2 fold change": -0.218}
{"sequence": "RRIRMRPPRLPRPRPRPIGTPRP", "shrunken log2 fold change": 0.403}
{"sequence": "RRIRHRPPRLPRPRPRPCDNPRP", "shrunken log2 fold change": -0.207}
{"sequence": "RRIRKRPPRLPRPRPRPGMRPRP", "shrunken log2 fold change": 0.926}
{"sequence": "RRIRQRPPRLPRPRPRPHIKPRP", "shrunken log2 fold change": -0.878}
{"sequence": "RRIRYRPPRLPRPRPRPFHWPRP", "shrunken log2 fold change": 0.0011}
{"sequence": "RRIRVRPPRLPRPRPRPWIRPRP", "shrunken log2 fold change": -0.151}
{"sequence": "RRIRQRPPRLPRPRPRPGDDPRP", "shrunken log2 fold change": 0.176}
{"sequence": "RRIRGRPPRLPRPRPRPADEPRP", "shrunken log2 fold change": 0.239}
{"sequence": "RRIRARPPRLPRPRPRPNWYPRP", "shrunken log2 fold change": -0.245}
{"sequence": "RRIRLRPPRLPRPRPRPTYMPRP", "shrunken log2 fold change": -0.469}
{"sequence": "RRIRARPPRLPRPRPRPWNCPRP", "shrunken log2 fold change": 0.132}
{"sequence": "RRIRKRPPRLPRPRPRPHFKPRP", "shrunken log2 fold change": -0.0252}
{"sequence": "RRIRERPPRLPRPRPRPAIPPRP", "shrunken log2 fold change": -0.737}
{"sequence": "RRIRIRPPRLPRPRPRPCNHPRP", "shrunken log2 fold change": -0.232}
{"sequence": "RRIRTRPPRLPRPRPRPANCPRP", "shrunken log2 fold change": -0.0321}
{"sequence": "RRIRARPPRLPRPRPRPIDDPRP", "shrunken log2 fold change": 0.178}
{"sequence": "RRIRNRPPRLPRPRPRPMECPRP", "shrunken log2 fold change": -0.0276}
{"sequence": "RRIRGRPPRLPRPRPRPCIDPRP", "shrunken log2 fold change": 0.877}
{"sequence": "RRIRCRPPRLPRPRPRPWQWPRP", "shrunken log2 fold change": 0.187}
{"sequence": "RRIRQRPPRLPRPRPRPAFHPRP", "shrunken log2 fold change": -0.0711}
{"sequence": "RRIRTRPPRLPRPRPRPVNYPRP", "shrunken log2 fold change": 0.0177}
{"sequence": "RRIRSRPPRLPRPRPRPNAKPRP", "shrunken log2 fold change": 0.00752}
{"sequence": "RRIRRRPPRLPRPRPRPPWDPRP", "shrunken log2 fold change": 0.577}
